{
  "source": "paper PMC5435087",
  "assay_in_all_cases": "BLI",
  "key": {"[1]": {"system": "Boreoeutherian TARBP2 dsrm1 (reconstructed ancestor (Boreoeutheria))", "conditions": "Label-free kinetics assay (ForteBio, biotinylated RNA on streptavidin probes, biocytin block), 1x Kinetics Buffer, pH 7; temperature and salt not stated …; scale: fold lower affinity than ancestral TARBP2 dsrm1"}, "[2]": {"system": "Eutherian PRKRA dsrm2 (reconstructed ancestor (Eutheria))", "conditions": "Label-free kinetics assay (ForteBio, biotinylated RNA on streptavidin probes, biocytin block), 1x Kinetics Buffer, pH 7; temperature and salt not stated …; scale: fold higher affinity than ancestral mammal PRKRA dsrm2"}, "[3]": {"system": "Rosid dsrm1 (reconstructed ancestor (Rosids))", "conditions": "Label-free kinetics assay (ForteBio, biotinylated RNA on streptavidin probes, biocytin block), 1x Kinetics Buffer, pH 7; temperature and salt not stated …"}, "[4]": {"system": "ancAnimal dsrm (reconstructed ancestor (animal))", "conditions": "Label-free kinetics assay (ForteBio, biotinylated RNA on streptavidin probes, biocytin block), 1x Kinetics Buffer, pH 7; temperature and salt not stated …"}, "[5]": {"system": "ancAnimal dsrm + dsrm1 substitutions (reconstructed ancestor (animal))", "conditions": "Label-free kinetics assay (ForteBio, biotinylated RNA on streptavidin probes, biocytin block), 1x Kinetics Buffer, pH 7; temperature and salt not stated …"}, "[6]": {"system": "ancAnimal dsrm + dsrm3 substitutions (reconstructed ancestor (animal))", "conditions": "Label-free kinetics assay (ForteBio, biotinylated RNA on streptavidin probes, biocytin block), 1x Kinetics Buffer, pH 7; temperature and salt not stated …"}, "[7]": {"system": "ancAnimal dsrm1 (reconstructed ancestor (animal))", "conditions": "steady state; initial-rate Km 4.2 uM; Label-free kinetics assay (ForteBio, biotinylated RNA on streptavidin probes, biocytin block), 1x Kinetics Buffer, pH 7; temperature and salt not stated …"}, "[8]": {"system": "ancAnimal dsrm2 (reconstructed ancestor (animal))", "conditions": "steady state; initial-rate Km 22.9 uM; Label-free kinetics assay (ForteBio, biotinylated RNA on streptavidin probes, biocytin block), 1x Kinetics Buffer, pH 7; temperature and salt not stated …"}, "[9]": {"system": "ancAnimal dsrm3 (reconstructed ancestor (animal))", "conditions": "steady state; initial-rate Km 4.1 uM; Label-free kinetics assay (ForteBio, biotinylated RNA on streptavidin probes, biocytin block), 1x Kinetics Buffer, pH 7; temperature and salt not stated …"}, "[10]": {"system": "ancPlant DRB4 dsrm1 (reconstructed ancestor (plant))", "conditions": "steady state; initial-rate Km 38.3 uM; Label-free kinetics assay (ForteBio, biotinylated RNA on streptavidin probes, biocytin block), 1x Kinetics Buffer, pH 7; temperature and salt not stated …"}, "[11]": {"system": "ancPlant DRB6 dsrm2 (reconstructed ancestor (plant))", "conditions": "steady state; initial-rate Km 24.8 uM; Label-free kinetics assay (ForteBio, biotinylated RNA on streptavidin probes, biocytin block), 1x Kinetics Buffer, pH 7; temperature and salt not stated …"}, "[12]": {"system": "ancPlant dsrm (reconstructed ancestor (plant))", "conditions": "Label-free kinetics assay (ForteBio, biotinylated RNA on streptavidin probes, biocytin block), 1x Kinetics Buffer, pH 7; temperature and salt not stated …"}, "[13]": {"system": "ancPlant dsrm + dsrm2 alpha2 (reconstructed ancestor (plant))", "conditions": "Label-free kinetics assay (ForteBio, biotinylated RNA on streptavidin probes, biocytin block), 1x Kinetics Buffer, pH 7; temperature and salt not stated …"}, "[14]": {"system": "ancPlant dsrm2 (reconstructed ancestor (plant))", "conditions": "steady state; initial-rate Km 4.2 uM; Label-free kinetics assay (ForteBio, biotinylated RNA on streptavidin probes, biocytin block), 1x Kinetics Buffer, pH 7; temperature and salt not stated …"}, "[15]": {"system": "ancPlant dsrm2 H31L (reconstructed ancestor (plant))", "conditions": "Label-free kinetics assay (ForteBio, biotinylated RNA on streptavidin probes, biocytin block), 1x Kinetics Buffer, pH 7; temperature and salt not stated …; scale: fold change in Kd"}, "[16]": {"system": "ancestral TARBP2 dsrm1 + QV insertion (reconstructed ancestor (mammal))", "conditions": "Label-free kinetics assay (ForteBio, biotinylated RNA on streptavidin probes, biocytin block), 1x Kinetics Buffer, pH 7; temperature and salt not stated …; scale: fold lower affinity than ancestral TARBP2 dsrm1"}, "[17]": {"system": "ancestral dsrm1 before Rosid shift (reconstructed ancestor (plant))", "conditions": "Label-free kinetics assay (ForteBio, biotinylated RNA on streptavidin probes, biocytin block), 1x Kinetics Buffer, pH 7; temperature and salt not stated …"}, "[18]": {"system": "ancestral plant DRB4 dsrm1 (before Fabaceae shift) (reconstructed ancestor (plant))", "conditions": "Label-free kinetics assay (ForteBio, biotinylated RNA on streptavidin probes, biocytin block), 1x Kinetics Buffer, pH 7; temperature and salt not stated …"}, "[19]": {"system": "ancestral plant DRB4 dsrm1 + H31 (reconstructed ancestor (plant))", "conditions": "Label-free kinetics assay (ForteBio, biotinylated RNA on streptavidin probes, biocytin block), 1x Kinetics Buffer, pH 7; temperature and salt not stated …; scale: fold higher affinity than ancestral plant DRB4 dsrm1"}},
  "data": [
    {"substance": "short dsRNA", "values": [
      {"measurement": "binding signal", "setting": "[1]", "result": 10},
      {"measurement": "binding signal", "setting": "[2]", "result": 3.79},
      {"measurement": "Kd", "setting": "[3]", "result": 4.89, "unit": "pKd"},
      {"measurement": "Kd", "setting": "[4]", "result": 17.2, "unit": "µM"},
      {"measurement": "binding signal (fold higher affinity than ancAnimal dsrm)", "setting": "[5]", "result": 3},
      {"measurement": "binding signal (fold higher affinity than ancAnimal dsrm)", "setting": "[6]", "result": 4.3},
      {"measurement": "Kd", "setting": "[7]", "result": 4, "unit": "µM"},
      {"measurement": "Kd", "setting": "[8]", "result": 24.6, "unit": "µM"},
      {"measurement": "Kd", "setting": "[9]", "result": 3.2, "unit": "µM"},
      {"measurement": "Kd", "setting": "[10]", "result": 38.9, "unit": "µM"},
      {"measurement": "Kd", "setting": "[11]", "result": 24.4, "unit": "µM"},
      {"measurement": "Kd", "setting": "[12]", "result": 59.2, "unit": "µM"},
      {"measurement": "binding signal (fold higher affinity than ancPlant dsrm)", "setting": "[13]", "result": 9.1},
      {"measurement": "Kd", "setting": "[14]", "result": 5.2, "unit": "µM"},
      {"measurement": "binding signal", "setting": "[15]", "result": 6.6},
      {"measurement": "binding signal", "setting": "[16]", "result": 10},
      {"measurement": "Kd", "setting": "[17]", "result": 4.41, "unit": "pKd"},
      {"measurement": "Kd", "setting": "[18]", "result": 4.31, "unit": "pKd"},
      {"measurement": "binding signal", "setting": "[19]", "result": 8.1}
    ]}
  ]
}
